In the supplement of paper PMC7125110:
± gives the standard error. This sample holds only a part of the variants without activity.

B1: glmS ribozyme (parent)
chain: AUAAAAGCGCCAGAACUACAGAAAUGUAGUUGACGAGGAGGAGGUUUAUCGAAUUUUCGGCGGAUGCCUCCAAA

Experiments:
Conditions in all cases: with glucosamine-6-phosphate
[1] = variants of: B1; assay: self-cleavage kobs at 40 uM GlcN6P; higher = faster cleavage; RNA array
Method in brief: (§1)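 Glucosamine-6-phosphate, from 40 μM to 10 mM in HEPES/KCl/Mg(OAc)2 buffer, was flowed over sequenced MiSeq chips carrying barcoded ribozyme variants transcribed in situ by E. coli RNA polymerase. A hybridised Cy3 probe tracked the variants at 37 °C as tiles were imaged over ~14 h. kobs, kcat and KM were obtained by fitting normalised per-tile medians to exponential decays and then applying weighted Michaelis–Menten fits across concentrations.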

[2] = variants of: B1; assay: self-cleavage kobs at 640 uM GlcN6P; higher = faster cleavage; RNA array
Method in brief: as §1

[3] = variants of: B1; assay: self-cleavage kobs at 10000 uM GlcN6P; higher = faster cleavage; RNA array
Method in brief: as §1

[4] = variants of: B1; assay: self-cleavage kobs at 160 uM GlcN6P; higher = faster cleavage; RNA array
Method in brief: as §1

[5] = variants of: B1; assay: self-cleavage kobs at 2500 uM GlcN6P; higher = faster cleavage; RNA array
Method in brief: as §1

A33G U56G
self-cleavage kobs at 40 uM GlcN6P [1]: < 1e-05 s⁻¹
self-cleavage kobs at 640 uM GlcN6P [2]: < 1e-05 s⁻¹
self-cleavage kobs at 10000 uM GlcN6P [3]: < 1e-05 s⁻¹

G9U U30C G43A
self-cleavage kobs at 40 uM GlcN6P [1]: < 1e-05 s⁻¹
self-cleavage kobs at 640 uM GlcN6P [2]: < 1e-05 s⁻¹

C8U
self-cleavage kobs at 40 uM GlcN6P [1]: < 1e-05 s⁻¹
self-cleavage kobs at 160 uM GlcN6P [4]: < 1e-05 s⁻¹
self-cleavage kobs at 640 uM GlcN6P [2]: < 1e-05 s⁻¹
self-cleavage kobs at 2500 uM GlcN6P [5]: < 1e-05 s⁻¹

G7A A33U A52U C70U
self-cleavage kobs at 40 uM GlcN6P [1]: < 1e-05 s⁻¹
self-cleavage kobs at 2500 uM GlcN6P [5]: < 1e-05 s⁻¹

G7C A14G G38C U54G
self-cleavage kobs at 40 uM GlcN6P [1]: < 1e-05 s⁻¹

C16U U49G G59C G62U C67A
self-cleavage kobs at 40 uM GlcN6P [1]: < 1e-05 s⁻¹

G9C C11G G37A G38A U54C A64G
self-cleavage kobs at 40 uM GlcN6P [1]: < 1e-05 s⁻¹

G38C G43C
self-cleavage kobs at 40 uM GlcN6P [1]: < 1e-05 s⁻¹

C16U U55G
self-cleavage kobs at 40 uM GlcN6P [1]: 0.000446 ± 7.1e-05 s⁻¹
self-cleavage kobs at 160 uM GlcN6P [4]: 0.00102 ± 0.00026 s⁻¹
self-cleavage kobs at 640 uM GlcN6P [2]: 0.00467 ± 0.0013 s⁻¹
self-cleavage kobs at 2500 uM GlcN6P [5]: 0.00554 ± 0.0013 s⁻¹
self-cleavage kobs at 10000 uM GlcN6P [3]: 0.0464 ± 0.01 s⁻¹

A36C G59A C67A
self-cleavage kobs at 40 uM GlcN6P [1]: < 1e-05 s⁻¹
self-cleavage kobs at 10000 uM GlcN6P [3]: < 1e-05 s⁻¹

C10U C34A
self-cleavage kobs at 40 uM GlcN6P [1]: < 1e-05 s⁻¹
self-cleavage kobs at 160 uM GlcN6P [4]: < 1e-05 s⁻¹
self-cleavage kobs at 640 uM GlcN6P [2]: < 1e-05 s⁻¹
self-cleavage kobs at 10000 uM GlcN6P [3]: < 1e-05 s⁻¹

C34A G51A G63U C71U
self-cleavage kobs at 40 uM GlcN6P [1]: < 1e-05 s⁻¹
self-cleavage kobs at 10000 uM GlcN6P [3]: < 1e-05 s⁻¹

G60U U65G
self-cleavage kobs at 40 uM GlcN6P [1]: < 1e-05 s⁻¹
self-cleavage kobs at 640 uM GlcN6P [2]: < 1e-05 s⁻¹
self-cleavage kobs at 2500 uM GlcN6P [5]: < 1e-05 s⁻¹
self-cleavage kobs at 10000 uM GlcN6P [3]: < 1e-05 s⁻¹

A6G G7A G51C
self-cleavage kobs at 40 uM GlcN6P [1]: < 1e-05 s⁻¹
self-cleavage kobs at 10000 uM GlcN6P [3]: < 1e-05 s⁻¹

U55G G60U
self-cleavage kobs at 40 uM GlcN6P [1]: < 1e-05 s⁻¹
self-cleavage kobs at 160 uM GlcN6P [4]: < 1e-05 s⁻¹
self-cleavage kobs at 640 uM GlcN6P [2]: < 1e-05 s⁻¹
self-cleavage kobs at 2500 uM GlcN6P [5]: < 1e-05 s⁻¹

A6G A42G C50A U54C C70G
self-cleavage kobs at 40 uM GlcN6P [1]: < 1e-05 s⁻¹
self-cleavage kobs at 160 uM GlcN6P [4]: < 1e-05 s⁻¹
self-cleavage kobs at 640 uM GlcN6P [2]: < 1e-05 s⁻¹
self-cleavage kobs at 2500 uM GlcN6P [5]: < 1e-05 s⁻¹
self-cleavage kobs at 10000 uM GlcN6P [3]: < 1e-05 s⁻¹

G35U C58G G62U
self-cleavage kobs at 40 uM GlcN6P [1]: < 1e-05 s⁻¹

C11U A12U G43A C61G
self-cleavage kobs at 40 uM GlcN6P [1]: < 1e-05 s⁻¹
self-cleavage kobs at 10000 uM GlcN6P [3]: < 1e-05 s⁻¹

A33C C67G
self-cleavage kobs at 40 uM GlcN6P [1]: < 1e-05 s⁻¹
self-cleavage kobs at 160 uM GlcN6P [4]: < 1e-05 s⁻¹
self-cleavage kobs at 10000 uM GlcN6P [3]: < 1e-05 s⁻¹

C11G A33G G40C
self-cleavage kobs at 40 uM GlcN6P [1]: < 1e-05 s⁻¹
self-cleavage kobs at 10000 uM GlcN6P [3]: < 1e-05 s⁻¹

A39U A42G U65A
self-cleavage kobs at 40 uM GlcN6P [1]: 4.73e-05 ± 1.7e-05 s⁻¹
self-cleavage kobs at 10000 uM GlcN6P [3]: 0.00165 ± 0.00027 s⁻¹

U56C C58U G60U
self-cleavage kobs at 40 uM GlcN6P [1]: < 1e-05 s⁻¹
self-cleavage kobs at 160 uM GlcN6P [4]: < 1e-05 s⁻¹
self-cleavage kobs at 2500 uM GlcN6P [5]: < 1e-05 s⁻¹

A36G G41A G51C C61G C67U
self-cleavage kobs at 40 uM GlcN6P [1]: < 1e-05 s⁻¹
self-cleavage kobs at 10000 uM GlcN6P [3]: < 1e-05 s⁻¹

U31G A42C
self-cleavage kobs at 40 uM GlcN6P [1]: < 1e-05 s⁻¹
self-cleavage kobs at 160 uM GlcN6P [4]: < 1e-05 s⁻¹
self-cleavage kobs at 2500 uM GlcN6P [5]: < 1e-05 s⁻¹

A6C C10G G41A U49G G60A
self-cleavage kobs at 40 uM GlcN6P [1]: < 1e-05 s⁻¹

G44U A53G C70A
self-cleavage kobs at 40 uM GlcN6P [1]: < 1e-05 s⁻¹
self-cleavage kobs at 2500 uM GlcN6P [5]: < 1e-05 s⁻¹
self-cleavage kobs at 10000 uM GlcN6P [3]: < 1e-05 s⁻¹
